Experiments:
h5α (human) = h5α (human) (UniProt P16234); assay: ELISA (OD450), panel 'PDGF-AA BINDING TO PDGFRβ/α CHIMERAS'; axis 'CO…ON (nM)', titrated species not stated
1β4α (PDGFRβ/α chimera) = assay: as above
[1] = target: β1-3 (shorter version of PDGFRβ, D1D2D3); assay: ELISA (OD450), panel 'PDGF-BB BINDING TO hPDGFRβ DELETIONS'; axis 'CO…ON (nM)', titrated species not stated

PDGF-BB (ligand), sequence (P01127 82-190): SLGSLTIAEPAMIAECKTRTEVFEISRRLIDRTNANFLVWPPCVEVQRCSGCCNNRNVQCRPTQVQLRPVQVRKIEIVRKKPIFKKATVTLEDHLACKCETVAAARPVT
h5α (human), sequence (P16234 24-524 limits assumed): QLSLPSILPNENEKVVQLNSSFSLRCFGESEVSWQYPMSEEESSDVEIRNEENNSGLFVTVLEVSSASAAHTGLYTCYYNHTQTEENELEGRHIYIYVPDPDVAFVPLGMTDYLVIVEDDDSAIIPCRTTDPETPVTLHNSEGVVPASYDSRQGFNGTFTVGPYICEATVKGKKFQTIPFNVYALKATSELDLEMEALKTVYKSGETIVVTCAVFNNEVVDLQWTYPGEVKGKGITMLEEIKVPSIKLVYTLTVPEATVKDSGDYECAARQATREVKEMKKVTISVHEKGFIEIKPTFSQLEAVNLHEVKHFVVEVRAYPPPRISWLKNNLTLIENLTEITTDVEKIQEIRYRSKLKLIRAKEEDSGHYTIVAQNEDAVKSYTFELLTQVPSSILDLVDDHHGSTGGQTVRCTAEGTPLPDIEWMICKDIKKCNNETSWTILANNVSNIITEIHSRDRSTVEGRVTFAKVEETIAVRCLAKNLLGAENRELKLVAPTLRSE
1β4α (PDGFRβ/α chimera), sequence (P16234 other isoform, or with tags, fused parts or gaps mutant): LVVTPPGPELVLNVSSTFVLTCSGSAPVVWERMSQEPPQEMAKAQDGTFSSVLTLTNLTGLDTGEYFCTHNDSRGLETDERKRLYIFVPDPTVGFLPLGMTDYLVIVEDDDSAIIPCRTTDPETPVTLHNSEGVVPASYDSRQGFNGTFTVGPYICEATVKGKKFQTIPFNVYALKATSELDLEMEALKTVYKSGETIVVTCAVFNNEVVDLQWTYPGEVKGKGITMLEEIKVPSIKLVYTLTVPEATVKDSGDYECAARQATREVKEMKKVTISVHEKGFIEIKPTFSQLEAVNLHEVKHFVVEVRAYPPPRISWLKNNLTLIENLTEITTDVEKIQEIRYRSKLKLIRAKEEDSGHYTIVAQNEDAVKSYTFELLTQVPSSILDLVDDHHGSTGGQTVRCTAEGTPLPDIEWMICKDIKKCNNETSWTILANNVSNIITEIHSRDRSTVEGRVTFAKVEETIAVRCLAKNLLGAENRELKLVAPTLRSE

EC50 (read off the curve) (h5α (human)) [nM] | EC50 (read off the curve) (1β4α (PDGFRβ/α chimera)) [nM] | EC50 (read off the curve) [1] [nM] | Substance
0.02 | 0.05 | – | PDGF-AA (ligand)
– | – | 0.06 | PDGF-BB (ligand)

From patent US20090053241A1
